Measured values as given in the RNAGym collection of RNA variant scans (doi:10.1073/pnas.2313332121).

B1: TPR t1 (parent)
chain: GACCAAUCUGCCCUCAGAGCUCGAGAACAUCUUCGGAUGCAGAGGAGGCAGGCUUCGGUGGCGCGAUAGCGCCAACGUCCUCAACCUCCAAUGCAUCCCACCACAUGAUGAUGCCUGAAGAGCCUUGGUUUUUUG

Variants of: B1
Test: polymerase ribozyme fitness, log enrichment relative to wild type (log ratio); higher = more active; in vitro selection for triplet polymerase activity
Method in brief: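 Mutant libraries were PCR-built and transcribed for each subunit of a heterodimeric triplet polymerase ribozyme and selected for one round in triplicate at −7 °C, frozen, before gel excision of extended constructs and streptavidin-bead capture. Input and output libraries were Illumina-sequenced, keeping genotypes with ≥10 input reads and ≥1 read per output. Fitness is a logarithmic ratio of genotype to wild-type enrichment, in base 2, using inverse-variance-weighted replicate averages.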

Variant | polymerase ribozyme fitness (log ratio)
A43C G61A C85G G113A C115U | -5.36
G42C A46U | -2.24
G42U G57C C104U U125G | -1.31
G44U G135U | -2.86
A43C G63A | -4.15
G44U A121U | 0.755
A43U G63C U78C | -3.61
G44U G107A | -6.9
G44A G71A A91G U116A G122A C124U | -4.96
G44C C101A | -1.76
G42U G52U A105C | -6.66
G42C G63A | -3.47
G44C G127A U130G | -2.95
G44A A46U G47C A74G G93A | -3.83
A43U C114G G117C U126A | -5.06
G42U A43C G60A C89A | -2.03
G44U C72U U96A U106G G117U A119U | -6.08
G42U C49A G77A C123G G135U | -1.82
G44A C49G U55G C85U U106G G107C C115G | -6.1
G42C G69C C86A G117C | -6.61
G42U C73A G127A | -2.84
A43G G57U C88A C104A G120U | -5.76
A43U G45A C56G G113A | -0.304
A43U A46G C62G | -4.27

Variant | polymerase ribozyme fitness (log ratio)
G42C G120A | -1.29
G42U G48A G110C A111G | -6.19
A43G G60U | -1.12
A43U G44U G48A G122A | -2.63
G44U C89G | -0.509
G44U A46G C62U C94G | -4.05
G44A G51A G63U U125A | -7.95
G44A C89U C104A U106A | -2.1
G44C C72U U78G C115G U133G | -1.84
A43U C80U C99U G120C | -6.23
A43U G120C | -0.477
G44C U59C | -1.09
G44U G51A | -5.35
A43U U129G | -2.71
G44A C62A A111G | -3.93
A43C C114U G122A | -3.24
G44C G61A A84C | -0.524
A43G C72A | -1.13
G42U U78C C88A U92A G120A | -1.83
G44A A68G | -3.75
G42C G60C G77C U78A U130G G135C | -3.55
G42C A43C C115A | -1.55
G44A G61C U78C C79G U112G | -3.26
G44U G58C C62A | -2.17

Variant | polymerase ribozyme fitness (log ratio)
A43U G69U A91C | 0.416
A43U U54A G122U | -2.82
G44U G60C A91U A121G | -0.902
G42U C73A C99U | -6.29
G44U A46C | -2.3
G42U G60A | -2.16
G42U C88G C101A G120C | -3.53
G44A C53U | -2.11
G42U G52C U55A | -2.16
A43C C53U | -2.24
G42U G47A | -1.67
G42C G44C U81C G120A | -2.45
G44A C72G | -1.16
G44A C72U | -1.55
A43G G63A A121G U129A | -3.06
G42U C53U G60U G110U | -3.64
A43G C56G C82A A84C C114U | -3.15
G44U A108G | -2.57
G44A C82G | -1.66
G42U U59A C62G C88G A90U C98U | -7.74
G44C C73A C115U | -2.64
G44C A46G | -0.686
A43G C88G G113U A121G | -3.25
G44A C56A C89U C97U U116A | -3.63

Variant | polymerase ribozyme fitness (log ratio)
A43U C56A C85G U133A | -4.39
G42C C64A | -7.59
G44U A50U | -2.28
G44A G48C C56A | -1.29
A43G G52C C53A G61A U96C | -2.66
G44C U54A G61U C85U U87A C102A | -4.76
A43C A46U | -2.91
G42C A43C G71A U81A G120U | -6.28
G44C A50G G52U U54C U92C C124A | 0.995
A43U C102A C114A | -5.12
G44C U92G U112C | -0.938
G44U G45C U78C | -3.51
G44A G120U | -1.14
G44A G120C | 0.014
G44C C102A | -3.4
A43G C72U U112C G122U | -0.894
G42C G71U | -2.39
A43U G47U C72U U92A C104G C114G | -7.84
G44U A74U C88A U133G | -2.41
A43U G45U C115G | -3.44
G44U U54C C64U C102U G113A G128U | -6.53
A43C U125G | -2.24
G44U A46G G117A C124U | -1.75
G42U C56A | -3.39

Variant | polymerase ribozyme fitness (log ratio)
G44A C49A C85G C94A | -3.35
A43C U112G U126G G128U | -3.02
G44U G127C | -2.57
G44U A68G C85A | -5.43
G44C G63C A91G | -2.62
G42U C102A | -5.37
G42U C80U | -2.21
A43C C62U A84G | -5.86
A43G C56U U109A G117U | -5.89
A43U C49A | -1.86
G44A A46U A91G U92A | -5.83
A43U G52U A68G | -4.56
G42U G45C A50G C82U A121G | 0.685
G44U C72U C115U U129G | -4.96
G44U A90G U132C | -0.625
G44U G71U C104U U106A | -1.53
G42U C56U C72U C85G G110U | -5.53
G44A G113A U130C | -2.43
G44C U106G C124G G135A | -0.579
A43C C85A C101A | -5.53
G44A U96G | -2.12
G44A C88U | -1.23
A43U C70A | -3.22
G44A G61U | -0.0446

Variant | polymerase ribozyme fitness (log ratio)
G44C G63U C79U | -1.08
G42U C123A | -1.18
A43U G120C C124U | -0.575
G44U C53A C70A | -2.06
A43U A111U | -4.27
G42C C56U G69U G93A G120C U131G | -3.67
G44U U54G C76A | -1.81
G42C A46C C62U A95G U96G | -4
G44A C124A | 0.456
A43C G57U G77U | -2.72
A43G C115A G135C | -3.27
A43U C56G C64U | -2.1
G44U C56A G57A C104U U106G | -2.38
G44A A103G A105U G117A | -6.51
G44A C94U | -0.754
G42U | -1.31
G42C | -1.3
A43G U133A | -1.57
G42C G57A A105U | -5.05
A43U G63U G113U A119G | -2.34
G42U C101U | -1.21
G44C C88U | -0.458
G44C C73U | -0.621
G44A G71C C89U | -1.03

Variant | polymerase ribozyme fitness (log ratio)
A43G A50C C85U C89A | -3.67
A43C C56U U78C U125A | -3.15
A43C G48C C72G C102G | -7.62
A43C C82A | -2.48
G44C U87G | -0.724
A43U A46G U55G | -1.34
G42C G77U | -1.59
G44U A95U G117C | -4.64
A43U G71U U116C G128C | -5.7
G42U C124G G135C | 0.643
A43G G44C A46U G63C G120A | -5.64
G44C G69U A121C | 1.9
G44C C53U C76U | -1.48
G44U G60U C94U | -0.792
G44U C53A G63A G113A | -2.93
A43U G110A | -3.03
A43U G44U A74U U87A | -5
G44U C53G G61C G93A | -2.01
G42U G45C C70U A83G | -5.2
A43U C49G C72A C86A | -2.29
G42C A111G A121C | -1.57
A43C G61C | -5.34
A43C G61U | -2.24
